Values of other authors as cited in paper PMC8174103.
pKd: −log10 of the molar value.

Target: EGFR (Homo sapiens) (UniProt P00533)

- pKd: 8.70
Substance: EGF (from UniProt P01133)
